Assay results from US5876950.

B1: monoclonal antibody 39-1.7 (antibody, V domains shown)
VH: EVQLQQSGPELVKPGASVKMSCKASGYTFTDYYMKWVKQSHGKSLEWIGNINPNNGDTFFNQKFEGKATLTVDKSSSAAYMQLNSLTSEDSAVKKCARGPGTNYFDYWGQGTTLTVSS
VL: DIVLTQSPVSLAVSLGQRVTISCRASQSVSSSTNSYMHWYQQKPGQPPKLLIKYASNLESGVPARFSGSGSGTDFTLNIHPVEEEDTATYYCQHSWEIPFTFGSGTKLEIRR
B2: monoclonal antibody 39-1.106 (antibody, V domains shown)
VH: EVKLVESGGGLVKPGGSLKLSCTTSGFTFNNYAMSWVRQTPEKRLEWVASISSGDSTYYPDSVRGRFTISRDNARNILYLQMSSLRSEDTAMYYCARHYDYDSYAMDYWGQGTSVTVSS
VL: DIQMTQSPASLSASVGETVTITCRASETIYSYLAWYQQKQGRSPQLLVYNAKTLAEGVPSRFSGSGSGTQFSLKINSLQPEDFGSYYCQHHYNTPLTFGTGTKLELKR

Key:
human gp39 (human) [1] = molecular target: human gp39 (human) (UniProt P29965)
human gp39 (human), sequence (P29965 whole entry, the tested form may be a part): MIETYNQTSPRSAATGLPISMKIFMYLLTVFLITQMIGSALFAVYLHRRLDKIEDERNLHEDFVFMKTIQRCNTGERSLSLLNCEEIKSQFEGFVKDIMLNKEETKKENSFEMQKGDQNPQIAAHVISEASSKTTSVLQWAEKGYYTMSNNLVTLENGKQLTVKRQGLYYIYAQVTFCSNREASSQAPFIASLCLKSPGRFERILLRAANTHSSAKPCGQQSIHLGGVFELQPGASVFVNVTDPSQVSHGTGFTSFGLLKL

[2] = molecular target: gp39-CD8 fusion protein mutant K143/A (murine; human); experiment: ELISA on captured mutant gp39-CD8
[3] = molecular target: gp39-CD8 fusion protein mutant N180/A (murine; human); experiment: ELISA on captured mutant gp39-CD8
gp39-CD8 fusion protein mutant N180/A (murine; human), sequence (P01731 other isoform, or with tags, fused parts or gaps mutant): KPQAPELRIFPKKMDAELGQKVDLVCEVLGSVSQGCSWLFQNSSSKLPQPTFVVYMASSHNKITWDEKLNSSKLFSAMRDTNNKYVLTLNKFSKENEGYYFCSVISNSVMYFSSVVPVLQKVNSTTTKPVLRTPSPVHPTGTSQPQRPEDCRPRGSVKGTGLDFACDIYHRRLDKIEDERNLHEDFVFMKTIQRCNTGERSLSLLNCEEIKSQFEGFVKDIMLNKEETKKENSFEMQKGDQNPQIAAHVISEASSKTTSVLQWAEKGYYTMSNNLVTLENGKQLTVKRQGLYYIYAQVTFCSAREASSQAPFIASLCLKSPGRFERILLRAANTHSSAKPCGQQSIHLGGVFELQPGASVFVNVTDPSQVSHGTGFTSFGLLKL

[4] = molecular target: gp39-CD8 fusion protein mutant F201/A-E202/A (murine; human); experiment: ELISA on captured mutant gp39-CD8
[5] = molecular target: gp39-CD8 fusion protein mutant Y145/A (murine; human); experiment: ELISA on captured mutant gp39-CD8
gp39-CD8 fusion protein mutant Y145/A (murine; human), sequence (P01731 other isoform, or with tags, fused parts or gaps mutant): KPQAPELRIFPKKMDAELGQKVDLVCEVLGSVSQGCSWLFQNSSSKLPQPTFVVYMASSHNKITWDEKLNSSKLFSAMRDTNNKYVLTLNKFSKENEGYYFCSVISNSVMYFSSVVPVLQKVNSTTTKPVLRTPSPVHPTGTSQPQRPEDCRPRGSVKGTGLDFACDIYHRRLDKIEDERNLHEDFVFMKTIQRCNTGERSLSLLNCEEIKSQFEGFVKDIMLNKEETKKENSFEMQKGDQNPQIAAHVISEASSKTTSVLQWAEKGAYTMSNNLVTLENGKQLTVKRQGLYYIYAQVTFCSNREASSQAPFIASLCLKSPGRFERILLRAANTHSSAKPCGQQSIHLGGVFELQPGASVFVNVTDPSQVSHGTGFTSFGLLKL

[6] = molecular target: gp39-CD8 fusion protein mutant E129/A (murine; human); experiment: ELISA on captured mutant gp39-CD8
gp39-CD8 fusion protein mutant E129/A (murine; human), sequence (P01731 other isoform, or with tags, fused parts or gaps mutant): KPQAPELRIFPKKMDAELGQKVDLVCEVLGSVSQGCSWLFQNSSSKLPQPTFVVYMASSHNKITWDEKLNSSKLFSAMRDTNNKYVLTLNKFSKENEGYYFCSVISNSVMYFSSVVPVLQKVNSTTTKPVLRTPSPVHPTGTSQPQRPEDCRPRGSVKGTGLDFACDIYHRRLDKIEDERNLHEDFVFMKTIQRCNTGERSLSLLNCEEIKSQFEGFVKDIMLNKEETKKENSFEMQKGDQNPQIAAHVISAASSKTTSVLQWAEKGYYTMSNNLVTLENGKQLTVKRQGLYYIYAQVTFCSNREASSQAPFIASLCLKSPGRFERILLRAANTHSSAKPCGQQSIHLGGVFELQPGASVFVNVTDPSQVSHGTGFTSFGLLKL

[7] = molecular target: gp39-CD8 fusion protein mutant S131/A-T135/A (murine; human); experiment: ELISA on captured mutant gp39-CD8
gp39-CD8 fusion protein mutant S131/A-T135/A (murine; human), sequence (P01731 other isoform, or with tags, fused parts or gaps mutant): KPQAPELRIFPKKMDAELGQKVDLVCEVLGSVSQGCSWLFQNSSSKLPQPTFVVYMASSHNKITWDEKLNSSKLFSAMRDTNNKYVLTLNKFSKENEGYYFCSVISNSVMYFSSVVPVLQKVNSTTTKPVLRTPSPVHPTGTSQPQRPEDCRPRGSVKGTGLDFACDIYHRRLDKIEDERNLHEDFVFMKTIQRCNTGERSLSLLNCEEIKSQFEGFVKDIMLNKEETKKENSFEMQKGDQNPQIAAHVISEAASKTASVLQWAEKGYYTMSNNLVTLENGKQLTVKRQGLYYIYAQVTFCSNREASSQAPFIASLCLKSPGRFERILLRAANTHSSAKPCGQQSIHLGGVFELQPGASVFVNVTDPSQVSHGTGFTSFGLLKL

human gp39 (human) [8] = molecular target: human gp39 (human) (UniProt P29965); remark: listed apart in the source
human gp39 (human) [9] = molecular target: human gp39 (human) (UniProt P29965); remark: listed apart in the source
human gp39 (human) [10] = molecular target: human gp39 (human) (UniProt P29965); experiment: saturation binding of radiolabeled protein to Jurkat cells constitutively expressing gp39
human gp39 (human) [11] = molecular target: human gp39 (human) (UniProt P29965); experiment: saturation binding of iodinated protein to gp39+ BMS-10 Jurkat cells
human gp39 (human) [12] = molecular target: human gp39 (human) (UniProt P29965); experiment: Scatchard transformation, BMS-10 Jurkat cells

| Molecule | IgM produced, % of medium control (IgG in the next line) (% of medium control) (human gp39 (human) [1]) | [3H]thymidine incorporation of B cells, % of medium control (% of medium control) (human gp39 (human) [1]) | binding relative to wild-type gp39 [2] | binding relative to wild-type gp39 [3] | binding relative to wild-type gp39 [4] | binding relative to wild-type gp39 [5] | binding relative to wild-type gp39 [6] | binding relative to wild-type gp39 [7] | IgG synthesis at 7.53 x 10^12 binding sites/ml, % of medium only control (% of medium only control) (human gp39 (human) [8]) | IgG synthesis by B cells at 20 µg/ml purified mAb, % of medium control (% of medium control) (human gp39 (human) [9]) | fold greater affinity than 106 sFv-Ig (human gp39 (human) [10]) | Kd (human gp39 (human) [11]) | sites per cell (sites per cell) (human gp39 (human) [12]) |
| --- | --- | --- | --- | --- | --- | --- | --- | --- | --- | --- | --- | --- | --- |
| negative control monoclonal antibody | 87.9 | 87.9 | – | – | – | – | – | – | – | – | – | – | – |
| B1 | 13.9 | 3.3 | 5% | 93% | 112% | 106% | 70% | 89% | 12 | 17 | – | – | – |
| B2 | 17.9 | 2.9 | 52% | 144% | 9% | 124% | 130% | 113% | 11 | 8 | 3 fold | 0.4 nM | 10000 |
